For assay [1], the target named is PD-L1 molecules (Sino, Cat #10084-H08H) (UniProt Q9NZQ7 19-238). Briefly: SPR, Biacore T200; PD-1 Fc fusion fixed on CM5 chip, PD-L1 injected at 3.125-100 nM. (In SPR one partner is held on a chip, and binding of the other changes the refractive index at the surface.)
Assay [2] deals with T1, PD-L2 antigen (coated on 96-well immunoplate) (UniProt Q9BQ51 20-220, limits assumed).
T1 construct: also called antigen PD-L2
T1 sequence (looked up): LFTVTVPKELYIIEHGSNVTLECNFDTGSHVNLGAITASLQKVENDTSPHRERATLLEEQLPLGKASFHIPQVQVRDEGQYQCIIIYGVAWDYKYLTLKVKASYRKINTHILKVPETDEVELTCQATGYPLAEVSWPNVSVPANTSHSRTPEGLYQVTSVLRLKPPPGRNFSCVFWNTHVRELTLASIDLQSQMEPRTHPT
Put plainly: single antigen ELISA, PD-L2 coated at 1 ug/mL, detection with anti-hFc-HRP. The procedure:
(§1) Briefly, after coating PD-L1 antigen or PD-L2 antigen at a concentration of 1 μg/ml in a 96-well immunoplate at 4° C. overnight, 150 μl of 1× assay buffer (Biolegend) was treated for 1 hour to block non-specific binding. […] The treatment concentration on the antigen PD-L1-coated plate was serially diluted from 30 μg/mL to 3 times to make a total of 15 points, The treatment concentration on the antigen PD-L2 coated plate was serially diluted 3 times from 100 μg/mL to a total of 12 points. Anti-hFc-HRP (Biolegend) was treated with 100 μl at a concentration of 0.4 μg/mL. After incubation for 1 hour, color was developed with TMB, and after 3 minutes, the reaction was stopped using sulfuric acid. Washing was performed 3 times using washing buffer in all processes except for the process after TMB treatment, All processes except for the antigen coating process were carried out at room temperature.
(In an ELISA, binding on a coated surface is turned into a signal by an enzyme label.)

In assay [3] the target is T2, PD-L1 antigen (coated on 96-well immunoplate) (UniProt Q9NZQ7 19-238, limits assumed).
T2 construct: also called antigen PD-L1
T2 sequence (Q9NZQ7 19-238 limits assumed): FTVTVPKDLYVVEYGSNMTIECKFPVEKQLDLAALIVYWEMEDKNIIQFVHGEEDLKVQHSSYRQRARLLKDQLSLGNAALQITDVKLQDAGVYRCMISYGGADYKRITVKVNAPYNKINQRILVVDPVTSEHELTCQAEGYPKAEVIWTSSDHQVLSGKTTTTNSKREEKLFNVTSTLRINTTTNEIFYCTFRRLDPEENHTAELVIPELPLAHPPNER
Put plainly: single antigen ELISA, PD-L1 coated at 1 ug/mL, detection with anti-hFc-HRP. The procedure: as §1

Numbering of substitutions follows the chain as printed.

Usually Kd stands for the constant that tells how readily two partners part at equilibrium. The low end stands for a tighter complex, the high end for a looser complex. What is called koff is the first-order rate constant of dissociation. Low readings indicate slow dissociation, high ones fast dissociation. The kon is the second-order rate constant of association. By EC50 (read off the curve) is commonly meant the concentration giving half of the maximal effect.

Chain of PD-L1 molecules (Sino, Cat #10084-H08H) (Q9NZQ7 19-238 limits assumed): as above

B1: PD-1.m8 Fc fusion protein (Fc fusion)
chain: FLESPDRPWNAPTFSPALLLVAEGDNATFTCSFSNASESFHVVWHRESPSGQTDTLAAFPEDRSQPGQDHRFRVTRLPNGRDFHMSVVRAQRNDSGTYVCGVISLAPKIQIKESLGAELRVTERRAEVPTAHPSPSPRPAGQFQTLVVGGGGGSSNTKVDKRVEPKSCDKTHTCPPCPAPPVAGPSVFLFPPKPKDTLMISRTPEVTCVVVDVSHEDPEVQFNWYVDGVEVHNAKTKPREEQFNSTFRVVSVLTVVHQDWLNGKEYKCKVSNKGLPAPIEKTISKTKGQPREPQVYTLPPSREEMTKNQVSLTCLVKGFYPSDIAVEWESNGQPENNYKTTPPMLDSDGSFFLYSKLTVDKSRWQQGNVFSCSVMHEALHNHYTQKSLSLSPGK
In assay [1], B1 displayed an equilibrium dissociation constant (Kd) of 1.04 nM, a koff of 0.00182 s⁻¹ and a kon of 1.76e+06 M⁻¹ s⁻¹.

B2: PD-1.m7 Fc fusion protein (Fc fusion)
chain: B1 chain with H70C, Q91R
In assay [1], B2 showed a Kd of 1.1 nM, a koff of 0.00216 s⁻¹ and a kon of 1.96e+06 M⁻¹ s⁻¹.

B3: euPD-1 Fc fusion protein (Fc fusion)
chain: B1 chain with G116R
Take B3: in assay [1], the dissociation constant Kd turned out to be 0.714 nM, the koff was determined as 0.0013 s⁻¹ and the kon was found to be 1.82e+06 M⁻¹ s⁻¹. The binding result in assay [2] is given as “no binding (tested: 100 ug/mL)”. The “EC50 (read off the curve)” value in assay [3] is around 0.03 µg/mL.
